Where a chain is given by its changes, count along the chain named.
Columns and labels:
[1] = target: T1, MjAgo (Methanocaldococcus jannaschii) (UniProt Q58717); test: equilibrium fluorescence titration; settings: 5'-phosphate on guide; Stopped-flow at 25 °C, 20 nM FAM-labelled guide, same buffers as titrations (buffer composition not in the material; hybridization buffer 15 mM Hepes pH 7.4 …)
T1 sequence: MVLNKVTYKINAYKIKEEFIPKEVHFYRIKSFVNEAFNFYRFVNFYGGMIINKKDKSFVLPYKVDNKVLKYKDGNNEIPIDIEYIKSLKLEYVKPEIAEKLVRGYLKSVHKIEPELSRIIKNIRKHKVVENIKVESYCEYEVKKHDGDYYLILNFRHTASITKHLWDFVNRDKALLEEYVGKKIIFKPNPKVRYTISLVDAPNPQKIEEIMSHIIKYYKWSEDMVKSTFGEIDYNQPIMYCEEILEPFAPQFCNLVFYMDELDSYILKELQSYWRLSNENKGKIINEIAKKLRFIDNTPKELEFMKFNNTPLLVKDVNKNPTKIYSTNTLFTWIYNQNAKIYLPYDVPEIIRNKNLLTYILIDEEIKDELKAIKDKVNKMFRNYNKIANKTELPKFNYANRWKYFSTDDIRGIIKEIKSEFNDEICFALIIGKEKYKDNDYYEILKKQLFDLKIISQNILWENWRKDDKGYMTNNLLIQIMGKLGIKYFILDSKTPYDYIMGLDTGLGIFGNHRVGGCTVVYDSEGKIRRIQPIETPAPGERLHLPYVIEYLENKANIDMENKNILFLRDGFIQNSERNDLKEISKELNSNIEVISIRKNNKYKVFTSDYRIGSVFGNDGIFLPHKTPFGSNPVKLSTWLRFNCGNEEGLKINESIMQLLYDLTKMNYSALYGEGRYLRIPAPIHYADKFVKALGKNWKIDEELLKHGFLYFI

MjAgo [2] = target: T2, MjAgo (Methanocaldococcus jannaschii, UniProt Q58717 1-713); test: equilibrium fluorescence titration; target binding to preformed MjAgo-guide DNA; Stopped-flow at 25 °C, 20 nM FAM-labelled guide, same buffers as titrations (buffer composition not in the material; hybridization buffer 15 mM Hepes pH 7.4, 50 mM K-acetate, 1 mM Mg-acetate); settings: protein: recombinant; label: C6-linked 5/6-FAM at guide T14; guide preloaded on Ago, target added; 3' overhang 2 nt on both strands
T2 sequence: T1 sequence

MjAgo [3] = target: T2, MjAgo; test: stopped-flow fluorescence; two-step, third phase undetectable; k2 0.018 s-1; Kd n.d.; Stopped-flow at 25 °C, 20 nM FAM-labelled guide, same buffers as titrations (buffer composition not in the material; hybridization buffer 15 mM Hepes pH 7.4, 50 mM K-acetate, 1 mM Mg-acetate); settings: protein: recombinant; partially mismatched; guide preloaded on Ago, target added
MjAgo [4] = target: T2, MjAgo; test: equilibrium fluorescence titration; Stopped-flow at 25 °C, 20 nM FAM-labelled guide, same buffers as titrations (buffer composition not in the material; hybridization buffer 15 mM Hepes pH 7.4, 50 mM K-acetate, 1 mM Mg-acetate); settings: protein: recombinant; label: C6-linked 5/6-FAM at T14
hAgo2 = hAgo2 (human, UniProt Q9UKV8 1-859); test: stopped-flow fluorescence; three-step; k1 0.1e8 M-1 s-1; Kd n.d.; Stopped-flow at 25 °C, 20 nM FAM-labelled guide, same buffers as titrations (buffer composition not in the material; hybridization buffer 15 mM Hepes pH 7.4, 50 mM K-acetate, 1 mM Mg-acetate); settings: protein: recombinant; label: C6-linked 5/6-FAM at T14
hAgo2, sequence (Q9UKV8 whole entry): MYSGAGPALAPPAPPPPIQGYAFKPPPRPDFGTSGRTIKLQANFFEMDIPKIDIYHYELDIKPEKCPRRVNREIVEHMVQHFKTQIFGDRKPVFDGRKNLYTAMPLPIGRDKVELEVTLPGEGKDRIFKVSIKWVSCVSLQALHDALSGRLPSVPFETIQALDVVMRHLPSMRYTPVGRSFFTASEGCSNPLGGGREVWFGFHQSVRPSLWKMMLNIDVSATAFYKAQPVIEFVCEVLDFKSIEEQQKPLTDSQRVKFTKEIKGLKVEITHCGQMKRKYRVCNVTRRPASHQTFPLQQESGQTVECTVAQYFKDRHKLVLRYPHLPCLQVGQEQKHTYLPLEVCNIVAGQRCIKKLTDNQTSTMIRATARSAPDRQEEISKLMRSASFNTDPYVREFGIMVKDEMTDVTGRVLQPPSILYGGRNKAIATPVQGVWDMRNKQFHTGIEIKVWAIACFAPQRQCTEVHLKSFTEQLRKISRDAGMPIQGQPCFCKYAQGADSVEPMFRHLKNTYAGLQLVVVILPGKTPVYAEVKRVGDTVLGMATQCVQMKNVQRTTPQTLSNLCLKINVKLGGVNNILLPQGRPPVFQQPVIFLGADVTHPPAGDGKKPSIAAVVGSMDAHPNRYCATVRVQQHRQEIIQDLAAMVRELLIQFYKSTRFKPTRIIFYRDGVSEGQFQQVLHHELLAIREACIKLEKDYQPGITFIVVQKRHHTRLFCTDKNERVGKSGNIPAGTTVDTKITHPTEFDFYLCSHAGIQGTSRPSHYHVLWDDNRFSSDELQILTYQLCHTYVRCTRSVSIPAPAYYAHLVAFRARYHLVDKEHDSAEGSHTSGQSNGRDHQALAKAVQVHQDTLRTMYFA

[5] = target: T3, MjAgo Mid mutant (Tyr442Ala) (Methanocaldococcus jannaschii, UniProt Q58717 1-713, Y442A); test: stopped-flow fluorescence; two-step, Mid binding phase missing; k3 0.002 s-1; Kd n.d.; Stopped-flow at 25 °C, 20 nM FAM-labelled guide, same buffers as titrations (buffer composition not in the material; hybridization buffer 15 mM Hepes pH 7.4, 50 mM K-acetate, 1 mM Mg-acetate); settings: protein: recombinant; label: C6-linked 5/6-FAM at T14
T3 sequence: T1 sequence with Y442A

For “TAGAGGTACGTGCTGAGGCTT / GCCTCAGCACGTACCTCTATT [D-as2bFAM/D-s2b (ds siDNA, D-si2bFAM)]”, the Kd [1] was 103 nM.

B1: D-as2bFAM guide DNA / D-s2b target DNA (dsDNA)
DNA 1: TAGAGGTACGTGCTGAGGCTT
DNA 2: GCCTCAGCACGTACCTCTATT
modifications: 5'-phosphate on guide
B1 gave a Kd (MjAgo [2]) of 0.5 ± 0.04 nM.

B2: D-as2bFAM guide DNA / 3'-mismatched target DNA (D-s2bmm) (dsDNA)
DNA 1: TAGAGGTACGTGCTGAGGCTT
DNA 2: GCCTCAGCAGCGGGAATATTT
modifications: 5'-phosphate on guide
B2: binds (MjAgo [3]).

B3: D-as2bFAM (ss guide DNA) (ssDNA)
DNA: TAGAGGTACGTGCTGAGGCTT
modifications: 5'-phosphate
In the case of B3, the Kd (MjAgo [4]) is reported as 3.4 ± 0.4 nM, the binding result (hAgo2) is reported as “binds” and the binding result [5] is reported as “binds”.

Reference: paper PMC5065165, “Mechanistic Insights into Archaeal and Human Argonaute Substrate Binding and Cleavage Properties”
